In US20230250154A1 (CYTONICS, published 2023):
Each block holds one binder with its values, some of them ahead of it.

Legend:
Assay in all cases: cell-based or functional assay
MMP7 = biological target: T1, MMP7 (UniProt P09237 95-267, limits assumed)
T1 sequence (looked up): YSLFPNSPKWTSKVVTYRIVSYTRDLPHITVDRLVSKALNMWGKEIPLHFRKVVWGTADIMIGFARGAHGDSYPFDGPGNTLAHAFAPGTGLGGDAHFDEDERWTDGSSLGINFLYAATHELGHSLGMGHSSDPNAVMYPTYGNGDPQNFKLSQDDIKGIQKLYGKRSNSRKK

MMP2 = biological target: T2, MMP2 (human, UniProt P08253 110-660, limits assumed)
T2 sequence (looked up): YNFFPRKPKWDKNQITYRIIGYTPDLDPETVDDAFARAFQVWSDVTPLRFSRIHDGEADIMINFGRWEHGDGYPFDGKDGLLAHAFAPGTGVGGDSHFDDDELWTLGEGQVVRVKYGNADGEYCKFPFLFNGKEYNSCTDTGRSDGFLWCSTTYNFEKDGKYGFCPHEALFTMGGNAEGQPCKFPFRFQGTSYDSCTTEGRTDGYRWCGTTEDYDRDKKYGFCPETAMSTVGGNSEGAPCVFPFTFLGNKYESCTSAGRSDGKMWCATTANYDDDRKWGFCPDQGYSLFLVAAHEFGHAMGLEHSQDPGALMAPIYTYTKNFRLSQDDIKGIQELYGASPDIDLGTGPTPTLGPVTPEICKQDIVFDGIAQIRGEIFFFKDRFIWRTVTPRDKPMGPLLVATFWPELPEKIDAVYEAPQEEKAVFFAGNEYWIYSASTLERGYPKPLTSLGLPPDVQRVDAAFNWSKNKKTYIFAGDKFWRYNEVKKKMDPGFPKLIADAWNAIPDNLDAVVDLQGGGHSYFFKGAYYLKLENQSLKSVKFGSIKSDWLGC

MMP13 = MMP13 (human, UniProt P45452 104-471, limits assumed)
ADAMTS5 = biological target: T3, ADAMTS5 (human, UniProt Q9UNA0 262-622, limits assumed)
T3 sequence (looked up): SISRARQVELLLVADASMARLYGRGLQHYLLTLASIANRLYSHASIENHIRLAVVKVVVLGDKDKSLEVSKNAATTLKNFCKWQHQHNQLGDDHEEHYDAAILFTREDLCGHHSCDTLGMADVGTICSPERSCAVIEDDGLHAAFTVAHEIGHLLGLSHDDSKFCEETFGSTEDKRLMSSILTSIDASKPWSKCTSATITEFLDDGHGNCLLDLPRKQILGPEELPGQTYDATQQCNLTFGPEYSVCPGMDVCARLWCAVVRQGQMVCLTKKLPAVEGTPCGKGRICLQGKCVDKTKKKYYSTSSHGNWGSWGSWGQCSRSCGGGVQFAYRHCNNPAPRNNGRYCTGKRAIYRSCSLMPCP

ADAMTS4 = biological target: T4, ADAMTS4 (human, UniProt O75173 213-685, limits assumed)
T4 sequence (looked up): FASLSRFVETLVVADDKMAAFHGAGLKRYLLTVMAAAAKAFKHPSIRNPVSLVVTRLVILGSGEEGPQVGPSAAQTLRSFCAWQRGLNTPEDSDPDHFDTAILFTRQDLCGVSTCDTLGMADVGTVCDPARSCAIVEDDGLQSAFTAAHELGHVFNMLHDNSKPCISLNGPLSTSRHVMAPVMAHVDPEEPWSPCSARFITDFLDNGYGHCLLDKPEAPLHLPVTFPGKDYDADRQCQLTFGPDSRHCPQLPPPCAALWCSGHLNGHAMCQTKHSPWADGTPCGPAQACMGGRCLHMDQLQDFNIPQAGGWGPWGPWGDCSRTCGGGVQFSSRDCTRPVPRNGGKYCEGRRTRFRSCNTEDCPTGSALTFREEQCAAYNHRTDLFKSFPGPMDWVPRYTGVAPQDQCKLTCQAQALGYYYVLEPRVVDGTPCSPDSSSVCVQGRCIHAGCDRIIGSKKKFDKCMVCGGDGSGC

Elastase = biological target: Elastase
MMP1 = biological target: T5, MMP1 (human, UniProt P03956 100-469, limits assumed)
T5 sequence (looked up): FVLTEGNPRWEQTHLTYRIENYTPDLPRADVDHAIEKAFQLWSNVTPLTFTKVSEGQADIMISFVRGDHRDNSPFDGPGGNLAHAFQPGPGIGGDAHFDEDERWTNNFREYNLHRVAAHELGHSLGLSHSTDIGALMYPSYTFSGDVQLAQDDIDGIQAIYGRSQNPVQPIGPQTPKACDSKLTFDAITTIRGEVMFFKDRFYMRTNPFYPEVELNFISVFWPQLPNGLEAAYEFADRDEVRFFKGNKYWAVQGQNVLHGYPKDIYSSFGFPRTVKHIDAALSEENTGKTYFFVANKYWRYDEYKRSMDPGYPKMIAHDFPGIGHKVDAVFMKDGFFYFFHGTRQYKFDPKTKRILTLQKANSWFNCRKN

MMP3 = MMP3 (human, UniProt P08254 100-477, limits assumed)
Chain of MMP3 (P08254 100-477 limits assumed): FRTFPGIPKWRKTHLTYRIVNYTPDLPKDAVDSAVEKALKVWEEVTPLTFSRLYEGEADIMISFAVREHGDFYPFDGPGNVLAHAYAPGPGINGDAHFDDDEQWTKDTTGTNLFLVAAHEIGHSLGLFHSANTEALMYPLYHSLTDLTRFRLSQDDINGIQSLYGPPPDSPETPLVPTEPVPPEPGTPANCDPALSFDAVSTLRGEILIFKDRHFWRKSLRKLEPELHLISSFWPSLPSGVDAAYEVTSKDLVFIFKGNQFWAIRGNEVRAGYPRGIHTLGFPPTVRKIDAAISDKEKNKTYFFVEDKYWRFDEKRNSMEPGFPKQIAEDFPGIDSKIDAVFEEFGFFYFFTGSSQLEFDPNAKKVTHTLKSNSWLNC

MMP9 = MMP9 (human, UniProt P14780 107-707, limits assumed)
Chain of MMP9 (P14780 107-707 limits assumed): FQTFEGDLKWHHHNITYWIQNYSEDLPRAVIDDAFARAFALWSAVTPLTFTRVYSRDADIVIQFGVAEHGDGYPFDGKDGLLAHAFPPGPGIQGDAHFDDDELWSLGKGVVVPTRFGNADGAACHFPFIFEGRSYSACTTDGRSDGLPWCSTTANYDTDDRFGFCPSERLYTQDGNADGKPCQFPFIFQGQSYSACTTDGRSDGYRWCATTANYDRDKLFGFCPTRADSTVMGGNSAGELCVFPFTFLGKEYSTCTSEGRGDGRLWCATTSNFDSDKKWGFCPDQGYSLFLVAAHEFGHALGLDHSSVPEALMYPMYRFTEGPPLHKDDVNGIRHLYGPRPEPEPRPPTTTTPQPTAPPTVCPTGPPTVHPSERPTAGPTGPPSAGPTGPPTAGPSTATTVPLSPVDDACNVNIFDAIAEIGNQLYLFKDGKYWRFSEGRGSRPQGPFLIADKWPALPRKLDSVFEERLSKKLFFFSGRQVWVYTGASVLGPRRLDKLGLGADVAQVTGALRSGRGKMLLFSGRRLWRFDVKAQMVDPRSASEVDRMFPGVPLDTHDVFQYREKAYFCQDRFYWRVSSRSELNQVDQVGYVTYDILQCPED

MMP8 = MMP8 (human, UniProt P22894 101-467, limits assumed)
Chain of MMP8 (P22894 101-467 limits assumed): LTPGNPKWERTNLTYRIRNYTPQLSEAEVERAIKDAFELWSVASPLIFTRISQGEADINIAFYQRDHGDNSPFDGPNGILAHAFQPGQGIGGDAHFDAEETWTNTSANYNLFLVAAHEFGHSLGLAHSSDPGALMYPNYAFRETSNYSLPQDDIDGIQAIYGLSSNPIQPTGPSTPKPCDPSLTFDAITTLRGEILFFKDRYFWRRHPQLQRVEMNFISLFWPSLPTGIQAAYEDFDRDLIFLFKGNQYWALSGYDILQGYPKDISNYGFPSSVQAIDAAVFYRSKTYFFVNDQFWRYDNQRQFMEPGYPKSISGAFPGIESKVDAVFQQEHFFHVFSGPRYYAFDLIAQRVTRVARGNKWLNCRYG

Cathepsin G = biological target: T6, Cathepsin G (UniProt P08311 21-244)
T6 sequence (looked up): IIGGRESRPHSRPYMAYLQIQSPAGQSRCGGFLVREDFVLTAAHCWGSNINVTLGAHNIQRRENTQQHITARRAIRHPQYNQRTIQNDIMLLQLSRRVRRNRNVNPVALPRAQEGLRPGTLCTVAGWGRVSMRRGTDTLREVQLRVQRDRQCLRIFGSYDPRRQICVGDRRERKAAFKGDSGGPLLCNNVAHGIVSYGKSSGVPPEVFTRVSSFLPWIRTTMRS

Protease Inhibition (% of WT) (MMP7): 94 % of WT
Protease Inhibition (% of WT) (MMP2): 36 % of WT
Protease Inhibition (% of WT) (MMP13): 90 % of WT
Protease Inhibition (% of WT) (ADAMTS5): 398 % of WT
Protease Inhibition (% of WT) (ADAMTS4): 180 % of WT
Protease Inhibition (% of WT) (Elastase): 75 % of WT
Protease Inhibition (% of WT) (MMP1): 67 % of WT
Protease Inhibition (% of WT) (MMP3): 129 % of WT
Protease Inhibition (% of WT) (MMP9): 14 % of WT
Protease Inhibition (% of WT) (MMP8): 38 % of WT
Protease Inhibition (% of WT) (Cathepsin G): 69 % of WT
B1: Variant A2M, bait region SEQ ID NO 28 (other)
chain: SVSGKPQYMVLVPSLLHTETTEKGCVLLSYLNETVTVSASLESVRGNRSLFTDLEAENDVLHCVAFAVPKSSSNEEVMFLTVQVKGPTQEFKKRTTVMVKNEDSLVFVQTDKSIYKPGQTVKFRVVSMDENFHPLNELIPLVYIQDPKGNRIAQWQSFQLEGGLKQFSFPLSSEPFQGSYKVVVQKKSGGRTEHPFTVEEFVLPKFEVQVTVPKIITILEEEMNVSVCGLYTYGKPVPGHVTVSICRKYSDASDCHGEDSQAFCEKFSGQLNSHGCFYQQVKTKVFQLKRKEYEMKLHTEAQIQEEGTVVELTGRQSSEITRTITKLSFVKVDSHFRQGIPFFGQVRLVDGKGVPIPNKVIFIRGNEANYYSNATTDEHGLVQFSINTTNVMGTSLTVRVNYKDRSPCYGYQWVSEEHEEAHHTAYLVFSPSKSFVHLEPMSHELPCGHTQTVQAHYILNGGTLLGLKKLSFYYLIMAKGGIVRTGTHGLLVKQEDMKGHFSISIPVKSDIAPVARLLIYAVLPTGDVIGDSAKYDVENCLANKVDLSFSPSQSLPASHAHLRVTAAPQSVCALRAVDQSVLLMKPDAELSASSVYNLLPEKDLTGFPGPLNDQDDEDCINRHNVYINGITYTPVSSTNEKDMYSFLEDMGLKAFTNSKIRKPKMCPQLEQYEMHGPEGEGEGEFRAAPFLTAIPENFFGVSEDLVVQISELEGRGSPHTKLRKYFPETWIWDLVVVNSAGVAEVGVTVPDTITEWKAGAFCLSEDAGLGISSTASLRAFQPFFVELTMPYSVIRGEAFTLKATVLNYLPKCIRVSVQLEASPAFLAVPVEKEQAPHCICANGRQTVSWAVTPKSLGNVNFTVSAEALESQELCGTEVPSVPEHGRKDTVIKPLLVEPEGLEKETTFNSLLCPSGGEVSEELSLKLPPNVVEESARASVSVLGDILGSAMQNTQNLLQMPYGCGEQNMVLFAPNIYVLDYLNETQQLTPEIKSKAIGYLNTGYQRQLNYKHYDGSYSTFGERYGRNQGNTWLTAFVLKTFAQARAYIFIDEAHITQALIWLSQRQKDNGCFRSSGSLLNNAIKGGVEDEVTLSAYITIALLEIPLTVTHPVVRNALFCLESAWKTAQEGDHGSHVYTKALLAYAFALAGNQDKRKEVLKSLNEEAVKKDNSVHWERPQKPKAPVGHFYEPQAPSAEVEMTSYVLLAYLTAQPAPTSEDLTSATNIVKWITKQQNAQGGFSSTQDTVVALHALSKYGAATFTRTGKAAQVTIQSSGTFSSKFQVDNNNRLLLQQVSLPELPGEYSMKVTGEGCVYLQTSLKYNILPEKEEFPFALGVQTLPQTCDEPKAHTSFQISLSVSYTGSRSASNMAIVDVKMVSGFIPLKPTVKMLERSNHVSRTEVSSNHVLIYLDKVSNQTLSLFFTVLQDVPVRDLKPAIVKVYDYYETDEFAIAEYNAPCSKDLGNADYKDDDDKGASHHHHHH

Protease Inhibition (% of WT) (MMP7): 91 % of WT
Protease Inhibition (% of WT) (MMP2): 3 % of WT
Protease Inhibition (% of WT) (MMP13): 96 % of WT
Protease Inhibition (% of WT) (ADAMTS5): 296 % of WT
Protease Inhibition (% of WT) (ADAMTS4): 93 % of WT
Protease Inhibition (% of WT) (Elastase): 55 % of WT
Protease Inhibition (% of WT) (MMP1): 67 % of WT
Protease Inhibition (% of WT) (MMP3): < 100 % of WT
Protease Inhibition (% of WT) (MMP9): 18 % of WT
Protease Inhibition (% of WT) (MMP8): 29 % of WT
Protease Inhibition (% of WT) (Cathepsin G): 104 % of WT
B2: Variant A2M, bait region SEQ ID NO 30 (other)
chain: SVSGKPQYMVLVPSLLHTETTEKGCVLLSYLNETVTVSASLESVRGNRSLFTDLEAENDVLHCVAFAVPKSSSNEEVMFLTVQVKGPTQEFKKRTTVMVKNEDSLVFVQTDKSIYKPGQTVKFRVVSMDENFHPLNELIPLVYIQDPKGNRIAQWQSFQLEGGLKQFSFPLSSEPFQGSYKVVVQKKSGGRTEHPFTVEEFVLPKFEVQVTVPKIITILEEEMNVSVCGLYTYGKPVPGHVTVSICRKYSDASDCHGEDSQAFCEKFSGQLNSHGCFYQQVKTKVFQLKRKEYEMKLHTEAQIQEEGTVVELTGRQSSEITRTITKLSFVKVDSHFRQGIPFFGQVRLVDGKGVPIPNKVIFIRGNEANYYSNATTDEHGLVQFSINTTNVMGTSLTVRVNYKDRSPCYGYQWVSEEHEEAHHTAYLVFSPSKSFVHLEPMSHELPCGHTQTVQAHYILNGGTLLGLKKLSFYYLIMAKGGIVRTGTHGLLVKQEDMKGHFSISIPVKSDIAPVARLLIYAVLPTGDVIGDSAKYDVENCLANKVDLSFSPSQSLPASHAHLRVTAAPQSVCALRAVDQSVLLMKPDAELSASSVYNLLPEKDLTGFPGPLNDQDDEDCINRHNVYINGITYTPVSSTNEKDMYSFLEDMGLKAFTNSKIRKPKMCPQLEQYEMHGPEGEGEGPRYLTAIPENFFGVSEDLVVQISELEGRGSPHTKLRKYFPETWIWDLVVVNSAGVAEVGVTVPDTITEWKAGAFCLSEDAGLGISSTASLRAFQPFFVELTMPYSVIRGEAFTLKATVLNYLPKCIRVSVQLEASPAFLAVPVEKEQAPHCICANGRQTVSWAVTPKSLGNVNFTVSAEALESQELCGTEVPSVPEHGRKDTVIKPLLVEPEGLEKETTFNSLLCPSGGEVSEELSLKLPPNVVEESARASVSVLGDILGSAMQNTQNLLQMPYGCGEQNMVLFAPNIYVLDYLNETQQLTPEIKSKAIGYLNTGYQRQLNYKHYDGSYSTFGERYGRNQGNTWLTAFVLKTFAQARAYIFIDEAHITQALIWLSQRQKDNGCFRSSGSLLNNAIKGGVEDEVTLSAYITIALLEIPLTVTHPVVRNALFCLESAWKTAQEGDHGSHVYTKALLAYAFALAGNQDKRKEVLKSLNEEAVKKDNSVHWERPQKPKAPVGHFYEPQAPSAEVEMTSYVLLAYLTAQPAPTSEDLTSATNIVKWITKQQNAQGGFSSTQDTVVALHALSKYGAATFTRTGKAAQVTIQSSGTFSSKFQVDNNNRLLLQQVSLPELPGEYSMKVTGEGCVYLQTSLKYNILPEKEEFPFALGVQTLPQTCDEPKAHTSFQISLSVSYTGSRSASNMAIVDVKMVSGFIPLKPTVKMLERSNHVSRTEVSSNHVLIYLDKVSNQTLSLFFTVLQDVPVRDLKPAIVKVYDYYETDEFAIAEYNAPCSKDLGNADYKDDDDKGASHHHHHH
